According to the DeepSol protein solubility set:

Test: soluble on expression in E. coli; label from the status in PepcDB or PDB records

Sequence	soluble on expression in E. coli
MGSDKIHHHHHHMNNIYSDIYEKLSTLQWLMKRHQMFCQAESGPFADTSRGQGRILAMLKIQPEIATKELAYLLGIRQQSLNELLNKMEKNGYVERKPSENDKRVMIVHLTEKGKQVQQPKTDYQNIFNCLLPEELLQMSQYLDRIIEAFQLQNGNALEENNMIDWMAQARERMGDEHFEQLMSMRERAFGHMRPPKDIPGAERFSENYNGYVPDRDGFQPRNFRPDIK	not soluble
MPETELHVIFDQPNEVFFPGQPISGRVVLSTTKEKYKARAVNIKILGLAHTSWTDYESVRRVDADGKVSHHRQSVHYSANVNYLDYTLLLWACKDGSNELAAGEYAWSFSYNLPLNVPPSFEGKYGYLRYSVTAEVDRPWRLDKAKKRCITVSPLIDLNVIPHALTQINDQASENLGCCCFKKGYLELRVNIPKTGFVPGETVPMNIHILNHSSVPVTEVKAKIIQQCKFIAYRNGTTFHYGGGYETGMSGQLQETKHDTKTVVKHGQEMTVAPRNEHKFAMELRLPSVTPTINQFSPVITVEYIVQFHVETSSTFGSDVDCEMGILIGTVPIRQFLPPAYYPQDPNLPQILPTPIGGGVVAPPPGYGFLPMADGSEKGAGDASYPAASMPMYPIPNVPYPSKDDGTVVIPSAPPLSYEESMFGQDGTELNTDENEQPFAPKYPVFNNLPVYNPTAPPPE	not soluble
MGHHHHHHSHMTDQTYCDRLVQDTPFLTGHGRLSEQQVDRIILQLNRYYPQILTNKEAEKFRNPKASLRVRLCDLLSHLQRSGERDCQEFYRALYIHAQPLHSRLPSRHALRKFHITNHACLVLARGGHPSLPLMAWMSSMTTQVCCSPGLASPLASAPPQRPPSGPEGRVWQAQAVQMLVSVSHFLPLPPSLSHGSFHTAWGILYVHSCPSFSNLIPRGSLHVCVDSNLVPTAAWRS	not soluble
MGSDKIHHHHHHMKVNLDYLGRLFTENELTEEERQLAEKLPAMRKEKGKLFCQRCNSTILEEWYLPIGAYYCRECLLMKRVRSDQTLYYFPQEDFPKQDVLKWRGQLTPFQEKVSEGLLQVVDKQKPTLVHAVTGAGKTEMIYQVVAKVINAGGAVCLASPRIDVCLELYKRLQQDFSCGIALLHGESEPYFRTPLVVATTHQLLKFYQAFDLLIVDEVDAFPYVDNPMLYHAVKNSVKENGLRIFLTATSTNELDKKVRLGELKRLNLPRRFHGNPLIIPKPIWLSDFNRYLDKNRLSPKLKSYIEKQRKTAYPLLIFASEIKKGEQLAEILQEQFPNEKIGFVSSVTEDRLEQVQAFRDGELTILISTTILERGVTFPCVDVFVVEANHRLFTKSSLIQIGGRVGRSMDRPTGDLLFFHDGLNASIKKAIKEIQMMNKEAGL	not soluble
MTTQNELLNRIAELETKVAFQDNVIEELNQVLIHHQFVLDKLQTQVRHFANKFKNIQSSNVASQAEETPPPHY	soluble
MTSTFLYKFYPNYNAKNCGDRMPKLMLALDVLDRDRALKIVEDVKDYVDAIKVGYPLVLSTGTEIIKEIKKLCNKEVIADFKVADIPATNEKIAKITLKYADGIIVHGFVGEDSVKAVQDVAKKLNKKVIMVTEMSHPGAVQFLQPIADKLSEMAKKLKVDAIVAPSTRPERLKEIKEIAELPVITPGVGAQGGKIEDILNILDENDYVIVGRAIYQSQNPKEEAKKYKEMLNK	soluble
HPEKCSECSYSCSSKAALRIHERIHCTDRPFKCNYCSFDTKQPSNLSKHMKKFHGDM	soluble
MKLKVVYRKVSDYICYDLKEIVLPSSLPDPPHVVKRRKLTWHERFLVLKEASRLYAASWVRDIGPELRPNDYKKQGDAEPKKQAKEAENEPSVLEDLAVAARGGMETLRPALHRLYMTRASNYKDALTSFIKGYHEGLQQVMQNKAESEAPADEADKSKKTT	soluble
MSFATISVIGLGYIGLPTAAAFASRQKQVIGVDINQHAVDTINRGEIHIVEPDLASVVKTAVEGGFLRASTTPVEADAWLIAVPTPFKGDHEPDMTYVESAARSIAPVLKKGALVILESTSPVGSTEKMAEWLAEMRPDLTFPQQVGEQADVNIAYCPERVLPGQVMVELIKNDRVIGGMTPVCSARASELYKIFLEGECVVTNSRTAEMCKLTENSFRDVNIAFANELSLICADQGINVWELIRLANRHPRVNILQPGPGVGGHCIAVDPWFIVAQNPQQARLIRTAREVNDHKPFWVIDQVKAAVADCLAATDKRASELKIACFGLAFKPNIDDLRESPAMEIAELIAQWHSGETLVVEPNIHQLPKKLTGLCTLAQLDEALATADVLVMLVDHSQFKVINGDNVHQQYVVDAKGVWR	not soluble
MKPRQRQAAILEYLQKQGKCSVEELAQYFDTTGTTIRKDLVILEHAGTVIRTYGGVVLNKEESDPPIDHKTLINTHKKELIAEAAVSFIHDGDSIILDAGSTVLQIVPLLSRFNNITVMTNSLHIVNALSELDNEQTILMPGGTFRKKSASFHGQLAENAFEHFTFDKLFMGTDGIDLNAGVTTFNEVYTVSKAMCNAAREVILMADSSKFGRKSPNVVCSLESVDKLITDAGIDPAFRQALEEKGIDVIITGESNELEHHHHHH	soluble
MGSDKIHHHHHHMKGIISLIHGGKTFVDQIHSACQDAGIELYVISSNTVDADLLQNMSDKATVLEVIEGTDLNFESVLSFVEKLQQSNKQALACISVWENYRPLMARLNQALGAQDMCPEQVNLLRDKHLLRKVLYDAGLSQVNSRILTQEVFIQIQKNRELAFVKPRQGIASYGAFKLRPSTQWQQITEIAEQIQSDAVFSSSFADEVEFVAEDYISGVEFCFEIIHHDGQCNLIAIHEKLEVGEQNLTTLENVSASPPISLNRKQIEQANLWVSSIFERLELGSGCYHLEAKFDNNQWEVIEINPRIGGSYINESVAHVAGYSLLELWIRSLLRAGCSEYQAFLKVLSPHSEQFFERQQGSYFRVFFAEPNRTISRLNFKLGTPPIHKKLLMKEGQTTPNASRELFMAQALWSWSVSQDSVQTRAQISESLTALEVEYE	not soluble
MGSDKIHHHHHHMEMIMRPDRSLFIVEDDATFAKTLKRSFEKRDYDVVVCHGREDLLGALETAVPAYAVVDLKLGARGSGLECVKLLSARDTSMRIVVLTGFASIATAVEAIKLGACHYLAKPANTDDIEAAFGRAEGDVSVSLSSRPTSIKNLEWERIHETLVETGFNISETARRLGLHRRTLARKLEKRVVR	not soluble
MAHHHHHHMGTLEAQTQGPGSMIGITQAEAVLTIELQRPERRNALNSQLVEELTQAIRKAGDGSARAIVLTGQGTAFCAGADLSGDAFAADYPDRLIELHKAMDASPMPVVGAINGPAIGAGLQLAMQCDLRVVAPDAFFQFPTSKYGLALDNWSIRRLSSLVGHGRARAMLLSAEKLTAEIALHTGMANRIGTLADAQAWAAEIARLAPLAIQHAKRVLNDDGAIEEAWPAHKELFDKAWGSQDVIEAQVARMEKRPPKFQGA	soluble
MKTKSPALSGKLTDTELRTLRIFMAVVHYSGFTPAALELNVSRSAVSIAMADLEKRLSLRLCERGRAGFSLTTEGREVYRSTRQLFSALDQFRIQINAIHFNLKGELNIGITDNLVTMPQMRITSALRELNRLGPDVQINIQMIPPNEIISGVLDGQLHTGVIPVQKHYEGLEYLLLYEERSSLYCGQEHELFCRHDSELSPSMLKQYNGVLPAYDQTSEIKALHHELQLSASATDREGVAFLILTGRYIGYLPDHYAHRWVKEGVMRAILPANMSYLTPFATITKKGAPSNLVLENYLEQLKLASTTAGG	not soluble
MTGMSERERQVMKKLKEVVDKQRDEIRAKDRELGLKNEDVEALQQQQTRLMKINHDLRHRVTVVEAQGKALIEQKVELEADLQTKEQEMGSLRAELGKLRERLQGEHSQNGEEEPETEPVGEESISDAEKVAMDLKDPNRPRFTLQELRDVLHERNELKSKVFLLQEELAYYKSEEMEEENRIPQPPPIAHPRTSPQPESGIKRLFSFFSRDKKRLANTQRNVHIQESFGQWANTHRDDGYTEQGQEALQHL	not soluble
LDDKTGLGTILNPQATYFDYQATQSGAGSFNYTVKGDNLTATSQIVLAVNAGETPGNNIPVADNITLSTFNNVDAIIDLSAYITDADGDTLRINKLVSASNRFTLNGFQVTFAPDGFVGVDQAVYSVDDGRGGYALAYIVVTSNDANPPAPNTAPVAKDDSLSMDVAKQSVLNINLSGLISDADGDSLKVVTLYSHNDRAVLKENASVDYTPGNFRGVDQFTYLVSDGKGGYDLGTVTVTVGDSTPPTPPTPSLVAYQQAFVLDVDQLQTIDVTQSVTSEHLDAWSLTTVQDSTNLGVVSAKTATTFNYLAQTPGVAQIDYSVQGGSLSANSTITVAINAPVTPDNHRPEAQDTQLETLNNASKTIDLQGKISDVDGDTLSITLHGSARFSLNGTQVTFTPNGFVGLDQAVYSVEDGKGGYALANIVAISEDANPPVPNMAPTANDAQFTLDVAKNVTFNIDLVAQRLIADADGDALSIAHIYTANNRATKQGATGITYTPGAFRGVDQFTYVITDGKDGYAINAITVVVNDSTPANKIPTAGPVTAKMLHNDPAITISVNSAVSDADGDTLKIVSISGALGQASINPANALEMLYEPKGFVGTDRFVYVVSDDNGGYAMGEVTVTVTDSNPTAPVANTVQENTLLDTPINIDLSAYISDKETETANLVISNVTNATSPAVATLSGQTVIYTPNGFTGNDILTYTVTDGRH	not soluble
MKRSAFFISDGTGITAETLGQSLLAQFENITFNKFTRPYIDSVEKARAMVQQINNAADKDDVRPIIFDTIVNQDIREILATSNGFMIDIFSTFLAPLEQELSSHSSYSVGKSHSIGHNSNYMERIEAVNFALDNDDGARTHYYDKADIILVGVSRCGKTPTCLYMAMQFGIRAANYPLTEDDMERLQLPPALKQHREKLFGLTIDPDRLTAIRHERKPNSRYSSYAQCEFEVREVESLFRRENIPNINSTHFSVEEISAKVLVEKGVERRFKLEHHHHHH	not soluble
MALIQSCSGNTMTTDTIVAQATAPGRGGVGIIRVSGPLAAHVAQTVTGRTLRPRYAEYLPFTDEDGQQLDQGIALFFPNPHSFTGEDVLELQGHGGPVVMDMLIRRILQIKGVRPARPGEFSERAFLNDKMDLTQAEAIADLIDASSEQAAKSALQSLQGEFSKRIHTLVESLIHLRIYVEAAIDFPEEEIDFLADGKVSADLQTIIDNLAAVRREANQGAIMREGMKVVIAGRPNAGKSSLLNALSGKESAIVTDIAGTTRDVLREHIHIDGMPLHIIDTAGLRDASDAVEKIGIERAWEEIRQADRVLFMVDGTTTEATDPQDIWPDFVDKLPENIGITVIRNKADQTGEPLGICHVNQPTLIRLSAKTGQGVDALRQHLKECMGFSGNQEGGFMARRRHLDALERAAEHLAIGQQQLEGYMAGEILAEELRIAQQHLNEITGEFSSDDLLGRIFSSFCIGK	not soluble
MGEVQREKVAVIIGPTAVGKTKLSIDLAKALNGEIISGDSMQIYRTMDIGTAKVTKAEMDGIPHYMIDIKNPEDSFSVAEFQERVRKHIREITERGKLPIIVGGTGLYIQSVLFDYQFTDDAGDVIYREQREKLALERGVEYVHEKLQEVDPESAERIHANNVRRVIRALEIFHTTGEKMSEQIEKQEKELLYDVSLIGLTMDREMLYDRINLRVDLMMEQGLLEEVEGLYNRGIRDCQSIQAIGYKEIYDYFENRASLEDAVSQLKTNSRRYAKRQLTWFRNKMDVTWFDVTDGEKTSEILRYIEGKLQVKSNNSKLEHHHHHH	soluble
MTVKQTVEVTNKLGMHARPAMKLFELMQGFDAEVLLRNDEGTEAEANSVIALLMLDSAKGRQIEIEATGPQEVEALAAVIALFNSGFDED	not soluble
PRLEFEKPVIELQTKIAELKKFTQDSDMDLSAEIERLEDRLAKLQDDIYKNLKPWDRVQIARLADRPTTLDYIEHLFTDFFECHGDRAYGDDEAIVGGIAKFHGLPVTVIGHQRGKDTKENLVRNFGMPHPEGYRKALRLMKQADKFNR	not soluble
MSGLRVYSTSVTGSREIKSQQSEVTRILDGKRIQYQLVDISQDNALRDEMRTLAGNPKATPPQIVNGNHYCGDYELFVEAVEQDTLQEFLKLA	soluble
